Test results: patent US20210196796A1 (SYNTHEKINE, published 2021)
Positions count from the first letter of the chain named.

T1: orthogonal hCD122 receptor (hoRb), hCD122 with H133D and Y134F (human, UniProt P14784 27-550)
T1 sequence: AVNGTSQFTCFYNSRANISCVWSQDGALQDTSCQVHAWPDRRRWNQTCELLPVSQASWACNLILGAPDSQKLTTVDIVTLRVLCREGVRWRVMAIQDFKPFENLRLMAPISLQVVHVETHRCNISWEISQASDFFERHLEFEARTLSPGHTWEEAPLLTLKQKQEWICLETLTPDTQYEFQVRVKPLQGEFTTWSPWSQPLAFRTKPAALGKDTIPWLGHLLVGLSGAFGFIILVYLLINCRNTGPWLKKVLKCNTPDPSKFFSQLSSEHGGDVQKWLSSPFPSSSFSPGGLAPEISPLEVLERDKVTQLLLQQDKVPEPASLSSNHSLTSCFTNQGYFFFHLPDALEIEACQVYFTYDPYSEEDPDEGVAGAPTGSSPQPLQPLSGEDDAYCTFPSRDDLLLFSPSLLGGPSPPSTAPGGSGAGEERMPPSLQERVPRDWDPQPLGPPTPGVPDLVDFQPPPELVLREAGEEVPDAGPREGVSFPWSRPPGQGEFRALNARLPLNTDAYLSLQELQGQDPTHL

B1: SQVLTA (ligand)
chain: APTSSSTKKTQLQLSQLLVLLTAILNGINNYKNPKLTRMLTFKFYMPKKATELKHLQCLEEELKPLEEVLNLAQSKNFHLRPRDLISNINVIVLELKGSETTFMCEYADETATIVEFLNRWITFCQSIISTLT
B2: ΔM23, SQVLK- (ligand)
chain: APTSSSTKKTQLQLSQLLVLLKILNGINNYKNPKLTRMLTFKFYMPKKATELKHLQCLEEELKPLEEVLNLAQSKNFHLRPRDLISNINVIVLELKGSETTFMCEYADETATIVEFLNRWITFCQSIISTLT
B3: SQVLKW (ligand)
chain: B1 chain with T22K, A23W
B4: SQVLKH (ligand)
chain: B1 chain with T22K, A23H
B5: SQVLKY (ligand)
chain: B1 chain with T22K, A23Y
B6: SQVLKF (ligand)
chain: B1 chain with T22K, A23F
B7: SQVLKQ (ligand)
chain: B1 chain with T22K, A23Q
B8: SQVLKS (ligand)
chain: B1 chain with T22K, A23S
B9: SQVLKV (ligand)
chain: B1 chain with T22K, A23V
B10: SQVLKL (ligand)
chain: B1 chain with T22K, A23L
B11: ΔQ13, SQVLKA (ligand)
chain: B2 chain with Q13L, L14S, S15Q, Q16L, L18V, V19L, L21K, K22A

Each binder was assayed against T1, orthogonal hCD122 receptor (hoRb), … (assay: cell-based or functional assay).
For Relative Proliferation Fold Change 3F8 1:10 in this document: reference of the scale not given here.
For Relative Proliferation Fold Change 3F8 1:2 in this document: reference of the scale not given here.
For Relative Proliferation Fold Change 3F8 1:50 in this document: reference of the scale not given here.
For Relative Proliferation Fold Change NKL 1:10 in this document: reference of the scale not given here.
For Relative Proliferation Fold Change NKL 1:2 in this document: reference of the scale not given here.
For Relative Proliferation Fold Change NKL 1:50 in this document: reference of the scale not given here.

| Binder | NKL Ortho Proliferation Signal 1:2 | NKL Ortho Proliferation Signal 1:10 | NKL Ortho Proliferation Signal 1:50 | Relative Proliferation Fold Change NKL 1:2 | Relative Proliferation Fold Change NKL 1:10 | Relative Proliferation Fold Change NKL 1:50 |
| --- | --- | --- | --- | --- | --- | --- |
| B1 | 26400 | 19400 | 7650 | 2.27 fold | 1.38 fold | 0.6 fold |
| B2 | 27600 | 19000 | 8950 | 2.87 fold | 1.43 fold | 0.73 fold |
| B3 | 52000 | 36000 | 17900 | 3.55 fold | 2.52 fold | 1.33 fold |
| B4 | 44400 | 39200 | 18500 | 4 fold | 2.7 fold | 1.49 fold |
| B5 | 52400 | 43800 | 21900 | 3.51 fold | 2.64 fold | 1.38 fold |
| B6 | 65100 | 44700 | 23200 | 3.54 fold | 2.5 fold | 1.43 fold |
| B7 | 74300 | 82000 | 49600 | 4.43 fold | 4.61 fold | 3.05 fold |
| B8 | 56200 | 59400 | 29000 | 4.79 fold | 3.99 fold | 2.11 fold |
| B9 | 63400 | 66100 | 29900 | 4.61 fold | 4.15 fold | 2 fold |
| B10 | 59700 | 67100 | 32700 | 4.69 fold | 4.38 fold | 2.26 fold |
| B11 | 26700 | 20700 | 11800 | 2.06 fold | 1.39 fold | 0.79 fold |

Molecular target: T1, orthogonal hCD122 receptor (hoRb), …
Assay: cell-based or functional assay
Remark: another data set of the same source

| Binder | 3F8 Ortho Proliferation Signal 1:2 | 3F8 Ortho Proliferation Signal 1:10 | 3F8 Ortho Proliferation Signal 1:50 | Relative Proliferation Fold Change 3F8 1:2 | Relative Proliferation Fold Change 3F8 1:10 | Relative Proliferation Fold Change 3F8 1:50 |
| --- | --- | --- | --- | --- | --- | --- |
| B1 | 24100 cts/min | 15100 cts/min | 6550 cts/min | 0.46 fold | 10.9 fold | 5.95 fold |
| B2 | 6220 cts/min | 4410 cts/min | 2930 cts/min | 12.9 fold | 7.97 fold | 2.82 fold |
| B3 | 40800 cts/min | 32600 cts/min | 20500 cts/min | 36 fold | 24.7 fold | 34.3 fold |
| B4 | 25700 cts/min | 17300 cts/min | 18700 cts/min | 39.9 fold | 14.6 fold | 13.7 fold |
| B5 | 39100 cts/min | 50600 cts/min | 24600 cts/min | 29.5 fold | 50 fold | 30.3 fold |
| B6 | 42100 cts/min | 48500 cts/min | 21000 cts/min | 42.8 fold | 48.8 fold | 17.4 fold |
| B7 | 45700 cts/min | 64000 cts/min | 33100 cts/min | 31.1 fold | 20 fold | 29.5 fold |
| B8 | 43800 cts/min | 55500 cts/min | 26600 cts/min | 90.8 fold | 58.3 fold | 24.2 fold |
| B9 | 45300 cts/min | 53000 cts/min | 21000 cts/min | 36.1 fold | 29.1 fold | 20.8 fold |
| B10 | 40200 cts/min | 37000 cts/min | 8930 cts/min | 43 fold | 15.3 fold | 5.43 fold |
| B11 | 37600 cts/min | 26100 cts/min | 12400 cts/min | 102 fold | 23.7 fold | 7.63 fold |
